Laboratory results as given in IntAct's records for PubMed 16839886.

B1: Guanine nucleotide-binding protein alpha-1 subunit (Saccharomyces cerevisiae), P08539 (parent)
chain: MGCTVSTQTIGDESDPFLQNKRANDVIEQSLQLEKQRDKNEIKLLLLGAGESGKSTVLKQLKLLHQGGFSHQERLQYAQVIWADAIQSMKILIIQARKLGIQLDCDDPINNKDLFACKRILLKAKALDYINASVAGGSDFLNDYVLKYSERYETRRRVQSTGRAKAAFDEDGNISNVKSDTDRDAETVTQNEDADRNNSSRINLQDICKDLNQEGDDQMFVRKTSREIQGQNRRNLIHEDIAKAIKQLWNNDKGIKQCFARSNEFQLEGSAAYYFDNIEKFASPNYVCTDEDILKGRIKTTGITETEFNIGSSKFKVLDAGGQRSERKKWIHCFEGITAVLFVLAMSEYDQMLFEDERVNRMHESIMLFDTLLNSKWFKDTPFILFLNKIDLFEEKVKSMPIRKYFPDYQGRVGDAEAGLKYFEKIFLSLNKTNKPIYVKRTCATDTQTMKFVLSAVTDLIIQQNLKKIGII
partner: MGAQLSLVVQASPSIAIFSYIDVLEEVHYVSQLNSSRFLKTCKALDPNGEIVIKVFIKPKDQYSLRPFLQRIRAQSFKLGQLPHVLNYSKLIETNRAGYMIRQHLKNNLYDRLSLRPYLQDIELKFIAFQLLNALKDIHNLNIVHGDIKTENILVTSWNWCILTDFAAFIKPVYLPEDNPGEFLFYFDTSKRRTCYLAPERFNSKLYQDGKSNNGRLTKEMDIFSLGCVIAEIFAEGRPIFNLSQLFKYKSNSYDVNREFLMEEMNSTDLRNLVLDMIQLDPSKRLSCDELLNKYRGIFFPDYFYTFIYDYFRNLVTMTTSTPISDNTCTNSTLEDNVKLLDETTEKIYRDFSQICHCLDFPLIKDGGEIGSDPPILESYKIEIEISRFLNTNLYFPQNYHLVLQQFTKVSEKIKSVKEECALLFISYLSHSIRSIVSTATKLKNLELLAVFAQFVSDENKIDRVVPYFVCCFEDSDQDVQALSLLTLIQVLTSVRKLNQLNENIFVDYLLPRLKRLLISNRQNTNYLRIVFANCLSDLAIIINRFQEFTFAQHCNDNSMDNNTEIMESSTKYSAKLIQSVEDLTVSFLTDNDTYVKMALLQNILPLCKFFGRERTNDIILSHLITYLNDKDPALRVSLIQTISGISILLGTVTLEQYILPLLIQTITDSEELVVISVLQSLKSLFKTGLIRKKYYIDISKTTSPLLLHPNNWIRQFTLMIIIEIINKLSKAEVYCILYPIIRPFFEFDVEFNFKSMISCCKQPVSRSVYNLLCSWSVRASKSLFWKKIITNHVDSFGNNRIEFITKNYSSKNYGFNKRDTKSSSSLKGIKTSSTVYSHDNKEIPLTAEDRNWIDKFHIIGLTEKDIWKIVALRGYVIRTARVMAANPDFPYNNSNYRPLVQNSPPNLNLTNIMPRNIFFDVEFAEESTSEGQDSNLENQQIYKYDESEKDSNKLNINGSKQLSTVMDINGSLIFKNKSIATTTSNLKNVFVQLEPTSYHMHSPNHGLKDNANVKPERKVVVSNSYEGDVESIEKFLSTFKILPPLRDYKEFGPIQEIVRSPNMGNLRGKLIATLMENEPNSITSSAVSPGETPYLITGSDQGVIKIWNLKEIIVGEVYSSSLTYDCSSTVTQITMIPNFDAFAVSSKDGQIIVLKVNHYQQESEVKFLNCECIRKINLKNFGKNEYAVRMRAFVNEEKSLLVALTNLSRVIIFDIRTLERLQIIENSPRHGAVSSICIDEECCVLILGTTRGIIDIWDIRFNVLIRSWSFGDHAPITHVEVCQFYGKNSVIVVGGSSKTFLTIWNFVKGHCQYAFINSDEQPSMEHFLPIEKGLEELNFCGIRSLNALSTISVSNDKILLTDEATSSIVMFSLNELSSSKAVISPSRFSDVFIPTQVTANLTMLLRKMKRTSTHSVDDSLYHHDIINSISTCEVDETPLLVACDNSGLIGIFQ

Variants of: B1
Settings: with vps15_yeast VPS15, P22219

Row | Variant | effect of a mutation on the interaction
1 | MGCTVSTQTIGDESDPFLQNKRANDVIEQSLQLEKQRDKNEIKLLLLGAGESGKSTVLKQLKLLHQGGFSHQERLQYAQVIWADAIQSMKILIIQARKLGIQLDCDDPINNKDLFACKRILLKAKALDYINASVAGGSDFLNDYVLKYSERYETRRRVQSTGRAKAAFDEDGNISNVKSDTDRDAETVTQNEDADRNNSSRINLQDICKDLNQEGDDQMFVRKTSREIQGQNRRNLIHEDIAKAIKQLWNNDKGIKQCFARSNEFQLEGSAAYYFDNIEKFASPNYVCTDEDILKGRIKTTGITETEFNIGSSKFKVLDAGGLRSERKKWIHCFEGITAVLFVLAMSEYDQMLFEDERVNRMHESIMLFDTLLNSKWFKDTPFILFLNKIDLFEEKVKSMPIRKYFPDYQGRVGDAEAGLKYFEKIFLSLNKTNKPIYVKRTCATDTQTMKFVLSAVTDLIIQQNLKKIGII [Q323L] | decreasing interaction
